Measured values: patent US20170088610A1
Like-named read-outs stand apart in the source and are kept apart here.

What was measured:
[1] = biological target: human nerve growth factor (human) (UniProt P01138); test: cell-based or functional assay
[2] = biological target: rat nerve growth factor (rat) (UniProt P25427); test: cell-based or functional assay
[3] = biological target: human nerve growth factor (human) (UniProt P01138); test: BIAcore SPR, Fab over immobilised human NGF
[4] = biological target: human nerve growth factor (human) (UniProt P01138); test: BIAcore SPR, Fab over immobilised human NGF (100 RU)
[5] = biological target: human nerve growth factor (human) (UniProt P01138); test: as above; remark: listed apart in the source
[6] = biological target: human nerve growth factor (human) (UniProt P01138)

Chain of human nerve growth factor (human) (P01138 122-241 limits assumed): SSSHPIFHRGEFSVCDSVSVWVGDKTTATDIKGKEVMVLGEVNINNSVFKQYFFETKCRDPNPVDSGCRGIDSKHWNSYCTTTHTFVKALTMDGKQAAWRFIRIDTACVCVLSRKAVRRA
Chain of rat nerve growth factor (rat) (P25427 122-241 limits assumed): as the sequence (P01138 122-241 limits assumed) above, with S3T, I6V, R9M, M37T, D60A, D65E, M92T, G94D, V117A, A120G counted along it

Row | Kd [3] [nM] | Kd [4] [nM] | koff [4] [s⁻¹] | kon [4] [M⁻¹ s⁻¹] | koff [5] [s⁻¹] | Substance | IC50, human NGF-dependent survival of mouse E13.5 trigeminal neurons (1.5 pM NGF) [1] [pM] | IC50, human NGF-dependent survival of mouse E13.5 trigeminal neurons (15 pM NGF) [1] [pM] | NGF-elicited survival of E17/18 trigeminal neurons [1] [nM] | IC50, rat NGF-dependent survival of mouse E13.5 trigeminal neurons (1.5 pM NGF) [2] [pM] | IC50, rat NGF-dependent survival of mouse E13.5 trigeminal neurons (15 pM NGF) [2] [pM] | IC50 (read off the curve), NGF-dependent survival of E13.5 trigeminal neurons (0.4 ng/ml human NGF, 48 h) [6] [nM]
1 | 10 | 3.7 | 9e-05 | 22000 | 8.4e-05 | mouse monoclonal anti-NGF antibody 911 (Fab) | 63.5 | 322 | 20 | 34.6 | 161 | –
2 | – | – | – | – | – | trkA receptor immunoadhesin (Fc fusion) | – | – | – | – | – | 0.07
